The values below come from the nanobody polyreactivity screen of Harvey et al. (2022).

The data set can be described thus: yeast display, Sf9 membrane polyspecificity reagent, FACS + sequencing; frameworks hold sequencing errors. The gist of the method: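 Synthetic nanobody libraries on Saccharomyces cerevisiae BJ5465 were galactose-induced for 36–48 hours, stained 1 hour at 4 °C with 10% biotinylated, detergent-solubilized Sf9 membrane reagent and enriched on streptavidin microbeads. FACS then separated cells into low and high (top ~1%) gates by anti-HA (expression) and streptavidin (reagent binding) fluorescence. Genes were colony-PCR amplified, MiSeq 2 × 250 sequenced and CDR-length filtered. A clone's polyreactivity label is that of its gate of origin.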
Turning to “QVQLVESGGGLVQAGGSLRLSCAASGIIFKSYAMGWSRQAPGKERELVAAITKRGGSTYYADSVKGRFTISRDNAKNTVYLQMNSLKPEDTAVYYCAADDGVGNTDDYWGQGTQVTVSS”, the “polyreactivity (PSR sort gate)” value is given as “high polyreactivity”. For the sequence “QVQLVESGGGLVQAGGSLRLSCAASGIIFKYNAMGRYRQAPGKEREFVAAITGSGGSTYYADSVKGRFTISRDNAKNTVYLQMYSLKPEDTAVYYCARPQWRDWYGYWGQGTQVTVSS”, the “polyreactivity (PSR sort gate)” value is on record as “low polyreactivity”. “QVQLVESGGGLVQAGGSLRLSCAASGIIFKYYAMGWYRQAPGKEREFVATISRRGGSTYYAYSVKGRFTISRDNAKNTVYLQMNSLKPEDTAVYYCATEYSPGREYKFNFWGQGTQVTVSS”: the “polyreactivity (PSR sort gate)” value is recorded as “high polyreactivity”. The result for “QVQLVESGGGLVQAGGSLRLSCAASGIIFKYYAMGWYRQAPGKERELVAAISWTGDSTYADSVKGRFTISRDNAKNTVYLQMNSLKPEDTAVYYCAVAFRRVRSLGEGYWGQGTQVTVSS” reads “low polyreactivity”; that for “QVQLVESGGGLVQAGGSLRLSCAASGIIFKYYAMGWYRQAPGKERELVAAITWSDTRTYYADSVKGRFTISRDNAMNTVYLQMNSLKPEDTAVYYCAVDEPSLYSWGGGYYWGQGTQVTVSS”, “high polyreactivity”; that for “QVQLVESGGGLVQAGGSLRLSCAASGIIFKYYAMGWYRQAPGKERELVAVISRSGGGTYYADSVKGRFTISRDNAKNTVYLQMNSLKPEDTAVYYCAAERSSGFDYWGQGTQVTVSS”, “high polyreactivity”. Take “QVQLVESGGGLVQAGGSLRLSCAASGIIFKYYARGWYRQAPGKERELVAGITSGGSTYYADSVKGRFTISRDNAKNTVYLQMNSLKPEDTAVYYCATRVRDGSQPQYRRRHSYDYWGQGTQVTVSS”: the “polyreactivity (PSR sort gate)” value was “high polyreactivity”. For “QVQLVESGGGLVQAGGSLRLSCAASGIIFKYYVMGWYRQAPGKERELVAGIRSGGNTYYADSVKGRFTISRDNAKNTVYFQMNSLKPEDTAVYYCNARPQFRFTDSYDYWGQGTQVTVSS”, the “polyreactivity (PSR sort gate)” value is recorded as “high polyreactivity”. As for “QVQLVESGGGLVQAGGSLRLSCAASGIIFLLYSMGWYRQAPGKERELVAAITNGGRTNYADSVKGRFTISRDNAKNTVYLQMNSLKPEDTAVYYCNAVLSVPDYTLFDYWGQGTQVTVSS”, the “polyreactivity (PSR sort gate)” value is “low polyreactivity”. As to “QVQLVESGGGLVQAGGSLRLSCAASGIIFLTNAMGWSRPAPAKERELVAAITAIGGSTYYADSVKGRFTISRDNAKNTVYLQMNSLKPEDTAVYYCAADFSYVYYLYDYWGQGTQVTVSS”, the “polyreactivity (PSR sort gate)” value is “low polyreactivity”. As for “QVQLVESGGGLVQAGGSLRLSCAASGIIFNSYAMGWYRQAPGKERELVAAITRAGRTYYADSVKGRFPISRDNAKNTVDLQMNSLKPEDTAVYYCAAAFLSRVQGYDSWGQGTQVTVSS”, the “polyreactivity (PSR sort gate)” value was “high polyreactivity”. The result for “QVQLVESGGGLVQAGGSLRLSCAASGIIFNYYAMGWYRQAPGKERELVAAITRGGRTNYADSVKGRFTISRDNAKNTVYLQMNSLKPEDTAVYYCNAPAFYTYKSFYAHSGYDYWGQGTQVTVSS” reads “high polyreactivity”; that for “QVQLVESGGGLVQAGGSLRLSCAASGIIFPFYAMGWYRQAPGKERELVAAITSDGNTNYADSVKGRFTISRDNAKNTVYLQMNSLKPEDTAVYYCNAETQYGVLSWHSTRHDYWGQGTQVTVSS”, “low polyreactivity”; that for “QVQLVESGGGLVQAGGSLRLSCAASGIIFPFYAMGWYRQEPGKERELVAAITSGDDTYYADSVKGRFTISRDNAKNTVYLQMNSLKPEDTAVYYCAADSPYVVAWPYVWYFTFDYCGQGTQVTVSS”, “low polyreactivity”. “QVQLVESGGGLVQAGGSLRLSCAASGIIFPGNVMGWYRQAPGKERELVAGISSSGSRTYYADSVKGRFTISRDNAKNTVYLQMNSLKPEDTAVYYCAAEHQRSRGRRYYIGYDYWGQGTQVTVSS”: the “polyreactivity (PSR sort gate)” value is recorded as “low polyreactivity”. On to “QVQLVESGGGLVQAGGSLRLSCAASGIIFPLYAMGWYRQAPGKDRELVADITRVGSTYYADSVKGRFTISRDNAKNTVYLQMNSLKPEDTAVYYCNKQKRWTYSHYFPTTYDYWGQGTQVTVSS”, for which the “polyreactivity (PSR sort gate)” value is “high polyreactivity”. As for “QVQLVESGGGLVQAGGSLRLSCAASGIIFPQYTMGWYRQAPGKERQLVAAITRSGGSTDYADSVKGRFTISRDNAKNTVYLQMNSLKPEDTAVYYCAAGWWRYKYPIGSSYNYWGQGTQVTVSS”, the “polyreactivity (PSR sort gate)” value is “high polyreactivity”. Consider “QVQLVESGGGLVQAGGSLRLSCAASGIIFPSYAMGWYRQAPGKERELVAAINSSGGSTYYADSVKGRFTISRDNAKNTVYLQMNSLKPEDTAVYYCAAEADLQWYPYSFPYPYYYWGQGTQVTVSS”, for which the “polyreactivity (PSR sort gate)” value is “high polyreactivity”. The result for “QVQLVESGGGLVQAGGSLRLSCAASGIIFPSYAMGWYRQAPGKERELVAAISLSGGRTYYADSVKGRFTISRDNAKNTVYLQMNSLKPEDTAVYYCAAYPTTRYSKYGYYWGQGTQVTVSS” reads “high polyreactivity”; that for “QVQLVESGGGLVQAGGSLRLSCAASGIIFPSYAMGWYRQAPGKERELVAAISLSGGRTYYADSVKGRFTISRDNAKNTVYLQMYSLKPEDTAVYYCAAYPSTSYSKYGYYWGQGTLVTVSS”, “high polyreactivity”; that for “QVQLVESGGGLVQAGGSLRLSCAASGIIFPVYAMGWFRQAPGKERELVATIDSGGGTYYADSVKGRFTISRDNANNTVYLQMNSLKPEDTAVYYCNASHPPKAELAHWGQGTQVTVSS”, “low polyreactivity”. On to “QVQLVESGGGLVQAGGSLRLSCAASGIIFPVYAMGWYRQAPGKERELVAAISSSGSSTYYADSVKGRFTISRDNAKNTVYLQMNSLKPEDTAVYYCAAVRYGLRRMDYWGQGTQVTVSS”, for which the “polyreactivity (PSR sort gate)” value was “high polyreactivity”. The result for “QVQLVESGGGLVQAGGSLRLSCAASGIIFPYNTMGWYRQAPGKERELVASIDDGGSTNYADSVKGRFTISRDNAKNTVYLQMNSLKPEDTAVYYCNADLFFIYVRQPGYDYWGQGTQVTVSS” reads “low polyreactivity”; that for “QVQLVESGGGLVQAGGSLRLSCAASGIIFPYYAMGWYRQAPGKERELVAAISSRDGRTYYADSVKGRFTISRDNAKNTVYLQMNSLKPEDTAVYYCAARAVGGVRGYRYDYWGQGTQVTVSS”, “high polyreactivity”; that for “QVQLVESGGGLVQAGGSLRLSCAASGIIFPYYTMGWYRQAPGKERELVARITNGGRTYYADSVKGRFTISRDNAKNTVYLQMNSLKPEDTGVYYCAADSRYDYEYWGQGTQVTVSS”, “high polyreactivity”. The result for “QVQLVESGGGLVQAGGSLRLSCAASGIIFQLYAMGWYRQAPGKERELVASITLSGTTTYYADSVKGRVTISRDNAKNTVYLQMNSLKPEDTAVYYCAKEYYYWGQGTQVTVSS” reads “low polyreactivity”; that for “QVQLVESGGGLVQAGGSLRLSCAASGIIFQRNDMGRYRQAPGKERELVANIRDGGITYADSVKGRFTISRDNAKNTVYLQMNSLKPEDTAVYYCARDDTSPGYGDQSSNAAYYYWGQGTQVTVSS”, “low polyreactivity”; that for “QVQLVESGGGLVQAGGSLRLSCAASGIIFQRNDMGWYRQAPGKERELVANIRDGGITYADSVKGRFTISRDNAKNTVYLQMNSLKPEDTAVYYCARDDTSPGYGDQSFNAAYYYWGQGTQVTVSS”, “low polyreactivity”. Take “QVQLVESGGGLVQAGGSLRLSCAASGIIFQSYTMGWYRPATGKERELVAAIDSGGSTYYADSVKGRFTISRDNAKNTVYLQMNSLKREDTAVYYCAAEPDTYWYTFYYWGQGTQVTVSS”: the “polyreactivity (PSR sort gate)” value is listed as “low polyreactivity”. “QVQLVESGGGLVQAGGSLRLSCAASGIIFQWYAMGWYSQAPGKERELVAAINSDGSTYYADSVKGRFTISRDNAKNTVYLQMNSLIPEDTAVYYCAADFIPLIGFDYWGQGTQVTVSS”: the “polyreactivity (PSR sort gate)” value is “low polyreactivity”.
